Reference: patent US6375945B1, “Adjuvant compositions for vaccines” (SmithKline Beecham Biologicals s.a., priority 1997, dated 2002)

B1: IL-7: cytokine (protein, UniProt P13232 26-177, looked up)
Interleukin-7: DCDIEGKDGKQYESVLMVSIDQLLDSMKEIGSNCLNNEFNFFKRHICDANKEGMFLFRAARKLRQFLKMNSTGDFDLHLLKVSEGTTILLNCTGQVKGRKPAALGEAQPTKSLEENKSLKEQKKLNDLCFLKRLLQEIKTCWNKILMGTKEH
B2: IL12: murine IL12 purified from the supernatant of transfected P1HTR cells; heterodimeric cytokine (protein, UniProt P43431 23-215; P43432 23-335, looked up)
Interleukin-12 subunit alpha: RVIPVSGPARCLSQSRNLLKTTDDMVKTAREKLKHYSCTAEDIDHEDITRDQTSTLKTCLPLELHKNESCLATRETSSTTRGSCLPPQKTSLMMTLCLGSIYEDLKMYQTEFQAINAALQNHNHQQIILDKGMLVAIDELMQSLNHNGETLRQKPPVGEADPYRVKMKLCILLHAFSTRVVTINRVMGYLSSA
Interleukin-12 subunit beta: MWELEKDVYVVEVDWTPDAPGETVNLTCDTPEEDDITWTSDQRHGVIGSGKTLTITVKEFLDAGQYTCHKGGETLSHSHLLLHKKENGIWSTEILKNFKNKTFLKCEAPNYSGRFTCSWLVQRNMDLKFNIKSSSSSPDSRAVTCGMASLSAEKVTLDQRDYEKYSVSCQEDVTCPTAEETLPIELALEARQQNKYENYSTSFFIRDIIKPDPPKNLQMKPLKNSQVEVSWEYPDSWSTPHSYFSLKFFVRIQRKKEKMKETEEGCNQKGAFLVEKTSTEVQCKGGNVCVQAQDRYYNSSCSKWACVPCRVRS
B3: IFN-γ: cytokine (protein, UniProt P01579 24-161, looked up)
Interferon gamma: QDPYVKEAENLKKYFNAGHSDVADNGTLFLGILKNWKEESDRKIMQSQIVSFYFKLFKNFKDDQSIQKSVETIKEDMNVKFFNSNKKKRDDFEKLTNYSVTDLNVQRKAIHELIQVMAELSPAAKTGKRKRSQMLFRG

Legend:
[1] = Enhancement of the effect of the QS21/MPL adjuvant by other cytokines
[2] = system: P1983 cells; test: IL12 dose curve: CTL activity in mice receiving peptide P198 + DQS21/3D-MPL + various doses of IL12; type: in vivo, DBA/2 mice; details: with P198 peptide and DQS21/3D-MPL
Method: DBA/2 mice were injected s.c. in the two footpads with 50 μg of P198 peptide ([…]), corresponding to the antigen expressed by the P198 TUM—clone (Sibille et al., J. Exp. Med., 1990: 172, 35-45), mixed with the DQS21/3D-MPL adjuvant (adjuvant) 100 μl final. […] This murine IL12 was purified from the supernatant of transfected P1HTR cells as described in Gajewski et al. (J. Immunol. 1995, 154: 5637-5648). […] On day 16, the mice were bled and stimulation of blood lymphocytes was performed by mixing 3×10^5 Ficoll purified lymphocytes with […] stimulating cells (100 Gy) and 2×10^6 irradiated normal syngeneic spleen cells (30 Gy) as feeder cells. The stimulating cells were P1983 cells, an azaguanine-resistant variant derived from the P198 TUM-clone. The cells were incubated in 48-well plates in a final volume of 0,8 ml MLTC medium described in Warnier et al. (Int. J. Cancer, 1996, 67, 303-310). Seven days later, CTL activity was measured in a standard chromium-release assay using 1,000 5^1Cr-labelled targets. […] Specific lytic units were calculated by subtracting the values obtained with the negative targets (usually less than 0,3 LU) from those obtained with the positive target. Mice were scored as ± when the LU detected were comprised between 0,1 and 1; + when LU were comprised between 1 and 10; and ++ above 10 LU. […]

[3] = mouse, in vivo

| Molecule | enhancement of the effect of the QS21/MPL adjuvant [1] | effect of IL12 on CTL activity ([2]; IL12 dose/mouse/day 10 ng (100U)) | effect of IL12 on CTL activity ([2]; IL12 only 30 ng (so in the source)) | systemic toxicity [3] |
| --- | --- | --- | --- | --- |
| GM-CSF: cytokine | unable to enhance |  |  |  |
| IL-6: cytokine | unable to enhance |  |  |  |
| B1 | unable to enhance |  |  |  |
| B2 |  | nearly fully maintained | disappeared | largely reduced but not totally absent |
| B3 | unable to enhance |  |  |  |
